Measured values taken from publication PMC6336796 (Nature Communications, 2019).

Biological target: T1, Flag-CENP-E (UniProt Q02224 1-2701)
T1 construct: CENP-E; Primers are in Supplementary Data 3; also called Flag-CENP-E protein; source: HEK293T, transfected, mitotic cells
Test: pull-down; Flag-CENP-E purified from mitotic HEK293T lysate and eluted with 3x Flag peptide, incubated with Myc-GFP or Myc-HOIP bound to anti-c-Myc affinity gel; blot with anti-Flag
Conditions: both partners purified

T1 sequence (Q02224 whole entry): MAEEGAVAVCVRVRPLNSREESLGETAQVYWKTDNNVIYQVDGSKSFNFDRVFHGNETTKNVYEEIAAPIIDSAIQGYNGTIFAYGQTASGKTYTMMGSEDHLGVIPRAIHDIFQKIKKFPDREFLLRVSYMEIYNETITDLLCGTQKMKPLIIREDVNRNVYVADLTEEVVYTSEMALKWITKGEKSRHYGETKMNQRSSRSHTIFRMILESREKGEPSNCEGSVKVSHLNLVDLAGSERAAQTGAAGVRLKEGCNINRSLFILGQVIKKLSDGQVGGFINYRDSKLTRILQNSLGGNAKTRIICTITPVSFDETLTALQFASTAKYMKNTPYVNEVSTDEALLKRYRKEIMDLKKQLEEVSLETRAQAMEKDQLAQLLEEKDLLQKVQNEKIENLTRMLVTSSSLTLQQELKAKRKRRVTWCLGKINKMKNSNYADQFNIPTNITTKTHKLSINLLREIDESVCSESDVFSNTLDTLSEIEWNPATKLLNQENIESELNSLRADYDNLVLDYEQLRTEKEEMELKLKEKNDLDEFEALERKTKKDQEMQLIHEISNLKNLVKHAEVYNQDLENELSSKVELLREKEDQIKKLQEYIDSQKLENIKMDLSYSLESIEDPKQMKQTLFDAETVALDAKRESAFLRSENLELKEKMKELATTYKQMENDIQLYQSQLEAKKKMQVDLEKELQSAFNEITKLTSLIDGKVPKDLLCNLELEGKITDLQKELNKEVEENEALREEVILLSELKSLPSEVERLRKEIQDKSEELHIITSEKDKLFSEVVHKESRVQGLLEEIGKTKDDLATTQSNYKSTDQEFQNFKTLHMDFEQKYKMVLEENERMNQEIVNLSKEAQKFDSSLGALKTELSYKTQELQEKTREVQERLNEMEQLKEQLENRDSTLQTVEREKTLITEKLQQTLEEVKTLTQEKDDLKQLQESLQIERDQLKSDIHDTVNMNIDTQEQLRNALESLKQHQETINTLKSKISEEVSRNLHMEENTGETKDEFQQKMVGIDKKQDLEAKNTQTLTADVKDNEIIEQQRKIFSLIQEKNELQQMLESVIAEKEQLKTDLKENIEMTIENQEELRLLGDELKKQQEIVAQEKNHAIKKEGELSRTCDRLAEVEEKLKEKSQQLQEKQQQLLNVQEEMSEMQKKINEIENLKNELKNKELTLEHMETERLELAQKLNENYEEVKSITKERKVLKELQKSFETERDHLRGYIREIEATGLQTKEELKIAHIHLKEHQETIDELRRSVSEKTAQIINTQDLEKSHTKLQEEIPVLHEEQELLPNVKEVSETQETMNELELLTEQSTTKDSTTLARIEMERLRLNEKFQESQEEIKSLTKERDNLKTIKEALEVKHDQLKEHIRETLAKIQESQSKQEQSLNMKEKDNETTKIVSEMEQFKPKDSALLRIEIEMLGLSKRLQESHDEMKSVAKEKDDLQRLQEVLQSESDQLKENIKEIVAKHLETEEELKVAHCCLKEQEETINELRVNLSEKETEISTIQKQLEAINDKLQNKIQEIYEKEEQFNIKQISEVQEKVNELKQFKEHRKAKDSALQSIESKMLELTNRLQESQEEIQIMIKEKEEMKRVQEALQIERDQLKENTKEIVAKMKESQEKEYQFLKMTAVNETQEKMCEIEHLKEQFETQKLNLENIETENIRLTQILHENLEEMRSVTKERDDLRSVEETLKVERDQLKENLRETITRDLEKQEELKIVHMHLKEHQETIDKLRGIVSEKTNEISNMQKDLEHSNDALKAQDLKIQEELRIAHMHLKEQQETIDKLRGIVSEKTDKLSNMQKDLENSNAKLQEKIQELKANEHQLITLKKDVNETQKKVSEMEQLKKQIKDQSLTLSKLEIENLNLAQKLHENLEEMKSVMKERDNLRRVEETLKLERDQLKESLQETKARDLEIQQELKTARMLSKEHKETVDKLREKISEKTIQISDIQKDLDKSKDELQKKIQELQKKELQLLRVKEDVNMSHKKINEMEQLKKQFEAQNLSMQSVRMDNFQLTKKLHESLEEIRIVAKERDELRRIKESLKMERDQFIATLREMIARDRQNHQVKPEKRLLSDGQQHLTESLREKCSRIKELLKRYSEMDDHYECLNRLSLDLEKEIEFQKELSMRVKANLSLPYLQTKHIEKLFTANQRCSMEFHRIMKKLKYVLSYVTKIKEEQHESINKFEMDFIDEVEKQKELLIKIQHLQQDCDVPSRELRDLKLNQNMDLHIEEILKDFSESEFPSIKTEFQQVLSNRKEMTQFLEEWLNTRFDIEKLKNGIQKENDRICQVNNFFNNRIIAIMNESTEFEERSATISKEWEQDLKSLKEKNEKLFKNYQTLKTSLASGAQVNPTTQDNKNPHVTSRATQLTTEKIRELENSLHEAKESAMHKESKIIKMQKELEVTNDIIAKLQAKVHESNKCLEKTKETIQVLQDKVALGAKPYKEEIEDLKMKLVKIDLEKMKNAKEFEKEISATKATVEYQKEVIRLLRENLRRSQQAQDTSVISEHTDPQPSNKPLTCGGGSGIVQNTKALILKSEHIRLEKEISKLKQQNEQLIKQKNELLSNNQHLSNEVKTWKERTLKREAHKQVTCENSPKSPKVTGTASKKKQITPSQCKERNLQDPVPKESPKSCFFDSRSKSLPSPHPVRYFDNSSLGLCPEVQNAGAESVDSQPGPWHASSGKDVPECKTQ

B1: Myc-HOIP (enzyme, UniProt Q96EP0 1-1072, looked up)
chain: MPGEEEERAFLVAREELASALRRDSGQAFSLEQLRPLLASSLPLAARYLQLDAARLVRCNAHGEPRNYLNTLSTALNILEKYGRNLLSPQRPRYWRGVKFNNPVFRSTVDAVQGGRDVLRLYGYTEEQPDGLSFPEGQEEPDEHQVATVTLEVLLLRTELSLLLQNTHPRQQALEQLLEDKVEDDMLQLSEFDPLLREIAPGPLTTPSVPGSTPGPCFLCGSAPGTLHCPSCKQALCPACDHLFHGHPSRAHHLRQTLPGVLQGTHLSPSLPASAQPRPQSTSLLALGDSSLSSPNPASAHLPWHCAACAMLNEPWAVLCVACDRPRGCKGLGLGTEGPQGTGGLEPDLARGRWACQSCTFENEAAAVLCSICERPRLAQPPSLVVDSRDAGICLQPLQQGDALLASAQSQVWYCIHCTFCNSSPGWVCVMCNRTSSPIPAQHAPRPYASSLEKGPPKPGPPRRLSAPLPSSCGDPEKQRQDKMREEGLQLVSMIREGEAAGACPEEIFSALQYSGTEVPLQWLRSELPYVLEMVAELAGQQDPGLGAFSCQEARRAWLDRHGNLDEAVEECVRTRRRKVQELQSLGFGPEEGSLQALFQHGGDVSRALTELQRQRLEPFRQRLWDSGPEPTPSWDGPDKQSLVRRLLAVYALPSWGRAELALSLLQETPRNYELGDVVEAVRHSQDRAFLRRLLAQECAVCGWALPHNRMQALTSCECTICPDCFRQHFTIALKEKHITDMVCPACGRPDLTDDTQLLSYFSTLDIQLRESLEPDAYALFHKKLTEGVLMRDPKFLWCAQCSFGFIYEREQLEATCPQCHQTFCVRCKRQWEEQHRGRSCEDFQNWKRMNDPEYQAQGLAMYLQENGIDCPKCKFSYALARGGCMHFHCTQCRHQFCSGCYNAFYAKNKCPEPNCRVKKSLHGHHPRDCLFYLRDWTALRLQKLLQDNNVMFNTEPPAGARAVPGGGCRVIEQKEVPNGLRDEACGKETPAGYAGLCQAHYKEYLVSLINAHSLDPATLYEVEELETATERYLHVRPQPLAGEDPPAYQARLLQKLTEEVPLGQSIPRRRK
notes: HOIP (RNF31) wild type; Construct supplied by Dr. Kazuhiro Iwai; also called RNF31; purified HOIP; source: HEK293T, transfected, mitotic cells
  binding result: binds
